In PMC11430298, “Complexes of HMO1 with DNA: Structure and Affinity”:

T1: HMO1 (Saccharomyces cerevisiae, UniProt Q03973 1-246)
T1 sequence: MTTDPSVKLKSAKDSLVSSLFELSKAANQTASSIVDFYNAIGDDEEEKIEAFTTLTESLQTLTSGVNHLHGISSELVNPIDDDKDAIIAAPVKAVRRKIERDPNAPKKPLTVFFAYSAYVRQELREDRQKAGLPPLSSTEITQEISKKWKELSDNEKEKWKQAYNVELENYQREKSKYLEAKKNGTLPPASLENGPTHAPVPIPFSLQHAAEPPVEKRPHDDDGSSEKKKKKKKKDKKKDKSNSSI

B1: RO duplex (randomized sequence) (dsDNA)
DNA 1: CTATCGGCACACTTCACGGCACAC
DNA 2: GTGTGCCGTGAAGTGTGCCGATAG
B2: SO duplex (IFHL site) (dsDNA)
DNA 1: ACTACGCTCTAGGCAGAGTTCACC
DNA 2: GGTGAACTCTGCCTAGAGCGTAGT

Biological target: T1, HMO1
Assay: EMSA; apparent Kd from Hill fit of free DNA; 6 nM DNA; EMSA: 17 mM HEPES pH 7.6, 2 mM Tris-HCl, 0.8 mM Na3EDTA, 0.11 mM 2-mercaptoethanol, 11 mM NaCl, 1.1% glycerol, 12% sucrose; 6 nM DNA, 10-800 nM HMO1, 30 min at
Conditions: protein: recombinant, tags: N-terminal His6 (pET15b), blunt

Binder	Kd (label: 5'-Cy3 on strand 1 (S3)) [nM]	Kd (label: 5'-Cy3 on strand 2 (S6)) [nM]
B1	128	
B2		62
